Kd data for one molecule are collected here from article PMC9519967 (2022).

Experiment in all cases: MST
Test [1] has as its target Sos-C-Tail-6 truncated peptide (without GST) (UniProt Q07889).
The target in test [2] is Sos-C-Tail-8 truncated peptide (without GST) (UniProt Q07889).
Test [3] deals with Sos-C-Tail-5 truncated peptide (without GST) (UniProt Q07889).

B1: His-tagged Grb3-3 N-terminal SH3 and SH2 domain (NSH3SH2Δ40) (domain or fragment)
chain: MEAIAKYDFKATADDELSFKRGDILKVLNEECDQNWYKAELNGKDGFIPKNYIEMKPHPFGNDVQHFKVLRDGAGKYFLWVVKFNSLNELVDYHRSTSVSRNQQIFLRDIE
modifications: Atto488 NHS ester label, 1:1 protein:dye
In the case of B1, the Kd in test [1] is 3.41 µM; in test [2], 71.1 µM; in test [3], 2.36 µM.
